The experiment has as its target allophycocyanin (AP) (Synechococcus elongatus PCC 7942). Kind of experiment: cryo-EM structure.

Our source for the stoichiometry N values is paper doi:10.1101/2025.04.28.650843.

“And” between values parts separate entries of the source, which are not always exact repeats. Identical values can stand only once.

The stoichiometry N is a count of units in the complex or per binding partner.

allophycocyanin (AP) (complex): the stoichiometry N is 3 and 6.
